# Measurements: the RNAGym collection of RNA variant scans (doi:10.7554/elife.80360)
# B1: Twister Ribozyme (parent)
# chain: AACACUGCCAAUGCCGGUCCCAAGCCCGGAUAAAAGUGGAGGGGGCGG
# Variants of: B1
# Assay: self-cleavage, relative activity (ratio to wild type); higher = more cleavage; co-transcriptional
row,Variant,self-cleavage
1,A1C G24U,0.111
2,A1C G24A,0.161
3,A1U G47U,0.0673
4,A1U G47A,0.0626
5,A1U G29A,0.0545
6,A2C G16C,0.0398
7,A2C G16U,0.0604
8,A1U A23U,0.0522
9,A2C C26G,0.0867
10,A2C G43A,0.1
11,A2C G43C,0.0309
12,A2C G43U,0.0462
13,A2G A10U,0.346
14,A1G G24A,0.144
15,A1G G24C,0.18
16,A1G C19U,0.345
17,A1G C19G,0.202
18,A1U A10C,0.0358
19,A1U A10U,0.0883
20,A1C A23U,0.184
21,A1C A23G,0.145
22,A1C A23C,0.12
23,A1G A10C,0.532
24,A1C A40C,0.186

row,Variant,self-cleavage
1,A1C A40G,0.117
2,A1C A11U,0.176
3,A1C G13C,0.116
4,A1C G13U,0.207
5,A1G C15G,0.125
6,A1G C15A,0.265
7,A1G G16U,0.726
8,A1G G16A,0.5
9,A1C A22C,0.134
10,A2C A22U,0.0564
11,A2C A22G,0.0432
12,A2C A22C,0.0812
13,A2G C21U,0.0523
14,A1G A22C,0.325
15,A1U A4G,0.0751
16,A1U A4U,0.0259
17,A2C G36U,0.0783
18,A2C G36A,0.0575
19,A1G C8A,0.22
20,A1C C8G,0.187
21,A1G A23G,0.213
22,A1G A23U,0.296
23,A2C C19G,0.0832
24,A2C C19A,0.0459

row,Variant,self-cleavage
1,A1C A34U,0.176
2,A1C A34G,0.19
3,A2G G7U,0.0648
4,A2C C3G,0.127
5,A1C C15G,0.187
6,A2C A10C,0.0739
7,A2C A10U,0.0864
8,A1U A33C,0.0396
9,A1U A33U,0.0603
10,A1U A30U,0.0367
11,A1U G43C,0.0749
12,A2G C9U,0.0996
13,A2G C9A,0.104
14,A1G C46U,0.393
15,A1C G42C,0.239
16,A1C G42U,0.169
17,A1G A30G,0.376
18,A1C A30C,0.199
19,A1C A30U,0.177
20,A1G C25A,0.197
21,A1G C25G,0.205
22,A2G G24A,0.082
23,A2G G24C,0.0995
24,A1G G45A,0.32

row,Variant,self-cleavage
1,A1G G45C,0.254
2,A1U G44C,0.0624
3,A1U G44U,0.0595
4,A2G G16C,0.119
5,A1U C14A,0.0917
6,A1U C14G,0.0363
7,A2C U6A,0.0688
8,A2C U6G,0.0861
9,A2G C15U,0.503
10,A2G C15G,0.0529
11,A2G C15A,0.136
12,A2C C15U,0.088
13,A1U C9G,0.0577
14,A1C C3U,0.208
15,A1C C3A,0.193
16,A1C A2C,1.36
17,A1C A2U,0.346
18,A1C A2G,1.25
19,A2C G48C,0.0956
20,A1G U6G,0.0944
21,A1G U6A,0.346
22,A1G U6C,0.202
23,A2G G13U,0.0873
24,A2G G13C,0.0608

row,Variant,self-cleavage
1,A2G G13A,0.131
2,A2C C27A,0.0541
3,A1G A11U,0.47
4,A1G U12G,0.527
5,A1G U12C,0.45
6,A1G U12A,0.515
7,A2C G24A,0.0674
8,A1G C5U,0.328
9,A1G C5A,0.224
10,A2C G7U,0.0484
11,A1G C20G,0.134
12,A1C G7U,0.149
13,A2C G45A,0.0666
14,A2C G45C,0.0767
15,A1G G39U,0.198
16,A1G G38A,0.432
17,A1G A40G,0.227
18,A2C C25A,0.0593
19,A1C U12C,0.144
20,A1U C20A,0.0791
21,A1U G45C,0.0573
22,A1U G45U,0.0565
23,A2G G38C,0.118
24,A2G G38A,0.448

row,Variant,self-cleavage
1,A1U G39C,0.0764
2,A1U G39A,0.0588
3,A1U A2C,0.118
4,A1U A2G,0.0622
5,A1C G47C,0.199
6,A1G A35C,0.359
7,A1U G28C,0.0644
8,A1U G28U,0.0658
9,A1U A22C,0.0885
10,A2G G36A,0.118
11,A1G G44U,0.287
12,A1G G44C,0.251
13,A2G A23G,0.0805
14,A2G A23U,0.0843
15,A2G A23C,0.0651
16,A1U G17U,0.0683
17,A1U G17C,0.055
18,A1G G29C,0.29
19,A1G G29A,0.437
20,A1U C27A,0.0592
21,A2C C14U,0.0681
22,A1C G16C,0.192
23,A1C G16U,0.189
24,A2G A4G,0.212

row,Variant,self-cleavage
1,A2G C26G,0.035
2,A2G C26A,0.134
3,A2G C26U,0.08
4,A1G A33U,0.512
5,A1G A33G,0.499
6,A1G C3A,0.349
7,A1C C27U,0.138
8,A1C C27G,0.121
9,A1U C5G,0.0467
10,A2G A34G,0.192
11,A2G A34C,0.151
12,A2C A35G,0.0429
13,A2C A35C,0.064
14,A1C G39A,0.162
15,A1C G39C,0.145
16,A2G C19U,0.155
17,A2G C19G,0.121
18,A2G A11U,0.583
19,A2G A11C,0.206
20,A2G C27A,0.0876
21,A1G G48U,0.409
22,A1G G48A,0.414
23,A1G G17A,0.367
24,A2C C46A,0.0436

row,Variant,self-cleavage
1,A2C C46G,0.0474
2,A2C C46U,0.0993
3,A2G G28A,0.269
4,A1G G36C,0.227
5,A1U G7C,0.0703
6,A1U C26G,0.0605
7,A1U C26U,0.0863
8,A1C C5U,0.277
9,A1U C15G,0.0744
10,A1U C15A,0.0603
11,A1G G13A,0.383
12,A1C U31C,0.141
13,A1C U37A,0.148
14,A1G A2U,0.19
15,A1G A2C,1.43
16,A1U C25A,0.0664
17,A1U A40G,0.074
18,A1U A40U,0.0682
19,A1C C20A,0.104
20,A2C U37G,0.057
21,A1C U18A,0.14
22,A1C U18C,0.17
23,A1U C3A,0.222
24,A2C A30C,0.0338

row,Variant,self-cleavage
1,A1U U31G,0.0468
2,A1U U31A,0.0544
3,A2G C46A,0.2
4,A2G C46G,0.431
5,A2C A23C,0.0233
6,A2C,0.0941
7,A2G,0.411
8,A1U A11C,0.0741
9,A1U A11G,0.0739
10,A2C G17U,0.0456
11,A2C G17A,0.063
12,A1U U37G,0.0556
13,A1U U37A,0.0677
14,A2G C14A,0.291
15,A1C C9U,0.174
16,A1C C9A,0.221
17,A1G C27U,0.36
18,A1G C27A,0.189
19,A1G C27G,0.178
20,A1U A35G,0.025
21,A1U A35C,0.0998
22,A2C G41A,0.0488
23,A2C G41C,0.0702
24,A2C G41U,0.0822

row,Variant,self-cleavage
1,A1C G36A,0.203
2,A1C G36U,0.173
3,A1U U18A,0.0328
4,A1U U18C,0.054
5,A1U U18G,0.0681
6,A2C A34G,0.0505
7,A2C A33U,0.0693
8,A2C A33G,0.107
9,A2C A33C,0.0306
10,A1C A10U,0.153
11,A1C A10G,0.133
12,A1C G43U,0.179
13,A1U C46U,0.0668
14,A1G A32C,0.497
15,A1G A32U,0.459
16,A1G A32G,0.507
17,A1C G48U,0.212
18,A1G G28U,0.428
19,A1C G38U,0.22
20,A1G C9U,0.259
21,A1G C9G,0.315
22,A1G G43U,0.243
23,A1G G43A,0.176
24,A2C U18C,0.0934

row,Variant,self-cleavage
1,A2C U18A,0.0761
2,A2C U18G,0.0901
3,A2G A35U,0.211
4,A2G A35G,0.226
5,A2C A11G,0.102
6,A2C C20G,0.0956
7,A1G G41U,0.228
8,A1C G17C,0.145
9,A1U G24A,0.062
10,A1G A34G,0.361
11,A1G A34U,0.24
12,A2C U12C,0.094
13,A2C U12A,0.0702
14,A1C G41U,0.199
15,A1C G41A,0.143
16,A1C G41C,0.14
17,A1G U37C,0.192
18,A1G G47U,0.278
19,A1G G47A,0.334
20,A1G G47C,0.385
21,A1G C14U,0.693
22,A1G C14G,0.168
23,A1G C14A,0.467
24,A1C C46A,0.148

row,Variant,self-cleavage
1,A2C G42U,0.0469
2,A2C G42C,0.0693
3,A2C G42A,0.0532
4,A1C U6G,0.0831
5,A1C U6C,0.147
6,A1C U6A,0.189
7,A2G C25G,0.0917
8,A2G C25A,0.127
9,A2C U31G,0.177
10,A2G A30U,0.256
11,A2G A30C,0.23
12,A1G U31C,0.409
13,A1G U31A,0.24
14,A1G U31G,0.533
15,A1U A34C,0.092
16,A1U U12C,0.0693
17,A1U U12G,0.0921
18,A1U U12A,0.0685
19,A2C G44C,0.035
20,A1C G44C,0.162
21,A1C G44A,0.176
22,A1C G44U,0.133
23,A1G G7C,0.0808
24,A2C G28A,0.0374

row,Variant,self-cleavage
1,A2C C5U,0.0782
2,A1C C19A,0.123
3,A1C C19U,0.205
4,A1U G38U,0.0843
5,A2C C9U,0.0433
6,A1U C21G,0.0652
7,A1U C21U,0.0559
8,A2C G39U,0.0688
9,A2G C8U,0.194
10,A2G C8G,0.0347
11,A2G C8A,0.153
12,A2G G17A,0.113
13,A2G G17C,0.0381
14,A2C C8G,0.0519
15,A1C C26G,0.171
16,A1C C26U,0.133
17,A1C C26A,0.171
18,A1U G42A,0.0707
19,A1U G42U,0.0745
20,A1G A4U,0.235
21,A1G A4C,0.0744
22,A1U G36A,0.0371
23,A1C C21U,0.125
24,A1C C21G,0.0972

row,Variant,self-cleavage
1,A1C C21A,0.154
2,A2C G13U,0.0549
3,A2C G13C,0.0312
4,A1C C14A,0.222
5,A1C C14U,0.19
6,A1U G48U,0.0644
7,A1U G48C,0.0772
8,A1U G48A,0.0713
9,A1C A4U,0.116
10,A1C C25A,0.148
11,A2G C3A,0.171
12,A2G C3G,0.583
13,A2C C21G,0.0366
14,A2C C21U,0.0368
15,A1C A33C,0.169
16,A1C A33G,0.116
17,A1U G16U,0.0446
18,A1G C21U,0.146
19,A1G C21G,0.0325
20,A2C A4U,0.0426
21,A2C A4G,0.0453
22,A2C A4C,0.154
